Target: T1, wild-type Fc (wtFc), recombinant Fc fragment of human IgG1 (human)
T1 construct: human IgG1 heavy chain constant region, Fc fragment, residues 223-447; also called IgG Fc
Test: SPR; BIAcore 2000; wtFc amine-coupled to a CM5 chip (440 RU); CgE injected, three-fold dilutions from 30 μM to 5 nM; pH 8 (50 mM HEPES pH 8.0, 150 mM NaCl, 3 mM EDTA, 0.005% P-20); equilibrium response fitted to a single-site model
Details: both partners purified

B1: C-terminal domain of the gE ectodomain (CgE), HSV-1 gE residues 213-390 (domain or fragment)
chain: APEVSHVRGVTVRMETPEAILFSPGETFSTNVSIHAIAHDDQTYSMDVVWLRFDVPTSCAEMRIYESCLYHPQLPECLSPADAPCAASTWTSRLAVRSYAGCSRTNPPPRCSAEAHMEPVPGLAWQAASVNLEFRDASPQHSGLYLCVVYVNDHIHAWGHITISTAAQYRNAVVEQPL
modifications: secreted from High 5 insect cells; disulfides Cys271-Cys297, Cys280-Cys289 and Cys314-Cys323 (gE numbering = entity position + 211); C-terminal Factor Xa site and 6xHis left out
- Kd: ~7 µM
